Substrate in this data set: CCCC(=O)SCC[N+](C)(C)C
Briefly: purified protein. The format is biochemical, Homo sapiens. The conditions noted are these: 24 °C, 317 pM enzyme, 0.1 mM DTNB, 0.005-3 mM substrate.

Data on one protein can be found in paper PMC2790002.

B1: human butyrylcholinesterase (Homo sapiens) (protein)
chain: EDDIIIATKNGKVRGMNLTVFGGTVTAFLGIPYAQPPLGRLRFKKPQSLTKWSDIWNATKYANSCCQNIDQSFPGFHGSEMWNPNTDLSEDCLYLNVWIPAPKPKNATVLIWIYGGGFQTGTSSLHVYDGKFLARVERVIVVSMNYRVGALGFLALPGNPEAPGNMGLFDQQLALQWVQKNIAAFGGNPKSVTLFGESAGAASVSLHLLSPGSHSLFTRAILQSGSFNAPWAVTSLYEARNRTLNLAKLTGCSRENETEIIKCLRNKDPQEILLNEAFVVPYGTPLSVNFGPTVDGDFLTDMPDILLELGQFKKTQILVGVNKDEGTAFLVYGAPGFSKDNNSIITRKEFQEGLKIFFPGVSEFGKESILFHYTDWVDDQRPENYREALGDVVGDYNFICPALEFTKKFSEWGNNAFFYYFEHRSSKLPWPEWMGVMHGYEIEFVFGLPLERRDNYTKAEEILSRSIVKRWANFAKYGNPNETQNNSTSWPVFKSTEQKYLTLNTESTRIMTKLRAQQCRFWTSFFPKVLEMTGNIDEAEWEWKAGFHRWNNYMMDWKNQFNDYTSKKESCVGL
In general, Km refers to the concentration of substrate that gives half-maximal velocity. Consider B1, for which the Km was determined as 100 µM.
